Consider four molecules from patent US20260263614A1, “ANTIBODY DRUG CONJUGATES THAT BIND CDCP1 AND USES THEREOF” (Pheon Therapeutics Ltd, priority 2022, published 2026).

A short description of series [1]: Comparative repeat-dose rat toxicity study. Format: in vivo. To be noted: DAR 8 on a Trastuzumab backbone, 20 or 60 mg/kg.
The nature of series [2]: Control incubation in buffer without S9. The conditions noted are these: 5 μM ADC, pH 5.0. As to the method:
Samples were analysed using LC/QE-orbitrap-MS.
The control incubations include each ADC without the addition of S9.

The target of series [3] is T1, Papain (a Cathepsin B surrogate) (Carica papaya, UniProt P00784).
T1 sequence (P00784 134-345): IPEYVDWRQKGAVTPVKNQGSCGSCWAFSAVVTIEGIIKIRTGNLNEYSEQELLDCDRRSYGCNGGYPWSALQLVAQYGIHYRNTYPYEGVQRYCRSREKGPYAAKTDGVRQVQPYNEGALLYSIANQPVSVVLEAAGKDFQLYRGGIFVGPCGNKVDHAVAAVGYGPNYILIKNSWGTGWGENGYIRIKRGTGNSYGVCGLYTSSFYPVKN
To be noted: reaction with papain, 24 hours and 96 hours.

The conditions of series [4]: comparison value of another MMAE ADC; cited from earlier work.
Series [5] deals with T2, huCDCP1(F30-T667 Q525)-8×His_T3 (human, UniProt Q9H5V8 30-667).
T2 construct: The construct name gives the limits F30-T667 and Q525; also called recombinant CDCP1 ECD; CDCP1 ECD
The experiment in a line: SPR, huCDCP1(F30-T667 Q525)-8×His_T3 as analyte; mAb lot T12. Background: In SPR one partner is held on a chip, and binding of the other changes the refractive index at the surface.

Series [6] addresses T3, CDCP1 on antigen-positive cells (A427; CDCP1+ cells MDA-MB-468, PC3, DU145) (Homo sapiens (Human), UniProt Q9H5V8 30-836, On the FIG. 45 cell lines, part of the CDCP1 is proteolytically cleaved in the extracellular domain; the cleavage site is not stated. The uncleaved mature protein is given.).
T3 construct: also called the antigen; antigen positive cell-line (A427)
The experiment in a line: binding to CDCP1+ cells (cell line not given), % Maximum against log concentration, fitted curve.

Series [7] deals with T2, huCDCP1(F30-T667 Q525)-8×His_T3. Briefly: SPR, recombinant CDCP1 ECD.
The subject of series [8] is MDA-MB-468, PC3, DU145 and OVMZ-6 cells. The experiment in a line: Binding to cells after CDCP1 cleavage. To be noted: mAbs binding membrane proximal or distal regions of CDCP1. The source says: FIG. 45E is an image of polyacrylamide gel binding assay. […] The sequences of the light chain variable region, heavy chain variable region, and CDRs (SEQ ID NOs: 15-22) of “Sequence 2” can be found in Table 2B.

`CC[C@@]1(O)C(=O)OCc2c1cc1n(c2=O)Cc2c-1nc1cc(F)c(C)c3c1c2[C@@H](NC(=O)[C@H](C)NC(=O)[C@@H](NC(=O)CCOCCOCCOCCOCCOCCOCCOCCOCCNC(=O)CCN1C(=O)C=CC1=O)C(C)C)CC3` [Compound 30]: the “changes in hemopoietic system (red cell parameters)” value in series [1] is reported as “negligible effects”. Further, the tolerability entry in series [1] (IV once every 3 weeks, two doses) is “well tolerated”. Further, the “LC/MS peak area of released payload (Exatecan; 4NH2-Exatecan; DXd; DM1, per ADC)” value is 26,179 in series [2] (Buffer without S9, 180 min); 51,267 in series [2] (Buffer without S9, 360 min); 59,452 in series [2] (Buffer without S9, 1440 min). The rate of cleavage entry in series [3] is listed as “slower rate compared to other TOPO1 inhibitors having Cathepsin B cleavage mechanisms”.

As to Adcetris, in series [4], the “ADC cyno t1/2” value was 45 to 72 h.

B1: CDCP1 mAb (unconjugated IgG1 antibody targeted to CDCP1, Sequence 1) (antibody, V domains shown)
VH: EVQLLESGGGLVQPGGSLRLSCAASGFTFSNYAMNWVRQAPGKGLEWVSAISGGGGSTYYADSVKGRFTISRDNSKNTLYLQMNSLRAEDTAVYYCAKESITMVRGVMDYYGMDVWGQGTTVTVSS
VL: DIQLTQSPSFLSASVGDRVTITCRASQGISSYLAWYQQKPGKAPKLLIYAASTLQGGVPSRFSGSGSGTEFTLTISSLQPEDFATYYCQHLNRFPRTFGQGTKVEIK
notes: IgG1; also called unconjugated CDCP1-mAb; unconjugated CDCP1 mAb
With B1, in series [5], binding was characterised by a dissociation constant (Kd) of 0.8 nM, the koff came to 0.000468 s⁻¹ and the kon is 584000 M⁻¹ s⁻¹. The same molecule showed an EC50 in series [6] of 0.207 µg/mL. Further, the Kd in series [7] was about 1 nM.

B2: mAbs-CDCPA1 Sequence 1: "mAbs-CDCPA1 Sequence 1 (proximal region)" antibody binding the membrane proximal region of CDCP1 (antibody, V domains shown)
VH: EVQLLESGGGLVQPGGSLRLSCAASGFTFSNYAMNWVRQAPGKGLEWVSAISGGGGSTYYADSVKGRFTISRDNSKNTLYLQMNSLRAEDTAVYYCAKESITMVRGVMDYYGMDVWGQGTTVTVSS
VL: DIQLTQSPSFLSASVGDRVTITCRASQGISSYLAWYQQKPGKAPKLLIYAASTLQGGVPSRFSGSGSGTEFTLTISSLQPEDFATYYCQHLNRFPRTFGQGTKVEIK
Turning to B2, the “binding to cells with cleaved CDCP1” value in series [8] is on record as “did not show significant difference in binding to CDCP1+ cells”.

A word on the Kd: it is the free concentration of one partner at which half of the binding sites on the other are occupied at equilibrium, for simple one-to-one binding. One may read the koff as a measure of how fast the partners let go of each other. Read a low koff as slow dissociation. As usually defined, the kon is a measure of how fast the partners come together. A higher kon goes with faster complex formation.
